B1: library; numbered along this chain (parent)
chain: MAAAGGARLLRAASAVLGGPAGRWLHHAGSRAGSSGLLRNRGPGGSAEASRSLSVSARARSSSEDKITVHFINRDGETLTTKGKVGDSLLDVVVENNLDIDGFGACEGTLACSTCHLIFEDHIYEKLDAITDEENDMLDLAYGLTDRSRLGCQICLTKSMDNMTVRVPETVADARQSIDVGKTS

Variants of: B1
Assay: scaled log2 fold change in cell abundance, elesclomol vs control (0 = silent mean, 1 = nonsense mean) (scaled log2 ratio); higher = higher viability under elesclomol (loss of FDX1 cuproptosis function)
Conditions: glucose 10 mM
[1] = with ABC1 FDX1 KO, elesclomol 5 nM, 14 days
[2] = with HEK293T FDX1 KO, elesclomol 40 nM, 11 days
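Further: variant abundance is its share of total variant reads in each endpoint sample, from next-generation sequencing of the integrated ORF PCR-amplified out of genomic DNA.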

Variant | scaled log2 fold change [1] | scaled log2 fold change [2]
V167C | -0.124 | 0.517
V167Q | 0.218 | 1.05
V167A | -0.622 | 0.856
V167K | 0.318 | 0.00856
V167N | 0.111 | -0.228
V167S | 0.152 | 0.0174
V167G | 0.269 | 0.997
V167Y | -0.0283 | 0.556
V167P | 0.251 | -0.184
V167L | -0.207 | -0.904
V167R | 0.264 | -0.286
V167F | 0.518 | 
V167M | 0.222 | -0.0856
V167W | 0.155 | -0.0986
V167I | -0.468 | 0.138
V167H | 0.217 | 1.13
V167D | 0.489 | 0.995
V167E | 0.136 | 0.156
V167T | 0.214 | 0.998
R166C | -0.501 | -0.211
R166E | -0.677 | -0.967
R166I | -0.0924 | -0.203
R166N | -0.198 | 0.918
R166T | 0.529 | -0.473

Variant | scaled log2 fold change [1] | scaled log2 fold change [2]
R166A | 0.373 | 0.284
R166V | -0.116 | 0.509
R166Y | 0.394 | 1.92
R166L | -0.509 | 0.328
R166W | -0.00581 | 0.748
R166F | -0.233 | 0.799
R166Q | -0.338 | -0.083
R166D | 0.375 | -0.407
R166G | 0.266 | -0.344
R166K | -0.502 | -0.393
R166M | 0.144 | -0.000209
R166H | -0.236 | 
R166S | 0.275 | -0.368
R166P | 1.06 | 1.77
V171S | -0.0546 | 0.136
V171K | 4.83e-05 | -0.343
V171P | 0.142 | 0.0269
V171R | -0.31 | -0.328
V171E | 0.182 | -0.192
V171H | -0.198 | -0.163
V171W | 0.0569 | 0.292
V171D | -0.592 | -0.239
V171Y | -0.342 | -0.405
V171I | -0.139 | 0.238

Variant | scaled log2 fold change [1] | scaled log2 fold change [2]
V171L | 0.231 | 0.229
V171N | -0.524 | 0.216
V171A | -0.586 | 0.229
V171T | -0.214 | -0.343
V171F | 0.0552 | -0.419
V171Q | -0.00995 | 0.876
V171M | 0.452 | 0.0122
V171C | -0.178 | -0.0893
N162P | 0.182 | -0.234
N162Q | 0.14 | -1.17
N162V | 0.0601 | 0.0858
N162R | 0.34 | -0.871
N162K | -0.0702 | 0.386
N162T | -0.0302 | 0.362
N162L | -0.0365 | -0.341
N162M | 0.128 | -0.13
N162I | -0.0298 | -0.611
N162Y | 0.0965 | 0.0713
N162W | 0.1 | 0.831
N162S | 0.162 | 
T170Q | 0.241 | -0.893
T170M | -0.185 | 
T170W | -0.0505 | 0.993
T170K | 0.0703 | 0.727

Variant | scaled log2 fold change [1] | scaled log2 fold change [2]
T170G | 0.233 | -0.241
T170E | 0.0373 | -0.644
T170S | -0.088 | -0.432
T170P | -0.219 | 0.16
T170C | 0.268 | -0.365
T170Y | 0.0553 | -0.221
T170N | -0.0752 | 0.953
T170V | -0.0936 | -0.713
T170D | 0.239 | 
T170A | -0.0897 | -0.0909
T170R | -0.159 | 
T170I | -0.092 | 0.126
T170L | -0.0824 | -0.244
T170H | -0.102 | -1.19
T170F | 0.262 | 0.826
E169M | -0.846 | 0.0592
E169G | -1.32 | 0.409
E169H | 0.197 | 0.526
E169C | -0.223 | -0.0591
E169A | 0.277 | -0.0328
E169P | -0.343 | 0.322
E169K | -0.0829 | 1.04
E169T | -0.402 | -0.135
E169Q | -0.166 | 0.849

Variant | scaled log2 fold change [1] | scaled log2 fold change [2]
E169N | -0.234 | 0.306
E169D | -0.464 | 1.13
E169S | -1.11 | -0.0914
E169I | -0.202 | -0.174
E169V | -0.251 | 0.342
E169R | 0.0391 | 0.411
E169F | -0.455 | 0.0831
E169W | -0.134 | 0.73
E169L | -0.227 | -0.347
E169Y | -0.0627 | -0.484
M163R | 0.657 | -0.245
M163L | 0.385 | 0.864
M163T | -0.131 | 0.00152
M163Y | 0.547 | -0.538
M163F | 0.518 | -0.42
M163V | -0.168 | 0.941
M163Q | 0.357 | -0.237
M163A | -0.185 | 
M163N | 0.51 | 0.528
M163D | 1.16 | 0.514
M163C | -0.512 | 0.319
M163H | 0.707 | 0.257
M163W | 0.598 | 0.247
M163K | 0.823 | 0.16

Variant | scaled log2 fold change [1] | scaled log2 fold change [2]
M163S | -0.173 | 0.99
M163G | 0.325 | -0.225
M163I | 0.122 | 0.861
M163P | 0.859 | 0.441
M163E | 0.522 | 0.691
A172I | 0.216 | 1.09
A172P | -0.333 | 0.355
A172N | -0.267 | -0.223
A172D | 0.0896 | 1.11
A172V | 0.337 | -0.531
A172E | 0.236 | 0.926
A172M | -0.557 | -0.421
A172G | -0.0465 | 0.05
A172Y | 0.17 | 
A172S | 0.42 | 0.922
A172L | -0.0445 | -0.675
A172K | 0.212 | 
A172C | -0.253 | -0.168
A172W | 0.0817 | 0.744
A172T | -0.0186 | 1.1
A172Q | 0.194 | 0.591
A172F | -0.0712 | 0.241
A172R | -0.163 | 0.124
A172H | -0.391 | 0.0671

Variant | scaled log2 fold change [1] | scaled log2 fold change [2]
V165H | 1.12 | 0.873
V165Q | 1.06 | 1.21
V165T | 0.13 | -0.566
V165I | -0.183 | -0.249
V165L | -0.0209 | -0.834
V165E | 1.06 | 1.35
V165C | 0.0302 | 0.944
V165F | 0.53 | 0.286
V165R | 1.09 | 1.45
V165G | 0.475 | 0.411
V165Y | 1.03 | 1.38
V165N | 0.812 | 1.02
V165K | 1.08 | 1.01
V165A | -0.0573 | -0.318
V165D | 1.12 | 0.895
V165M | -0.123 | -0.424
V165S | 0.00333 | 0.568
V165W | 0.852 | 0.405
V165P | 0.71 | 0.4
P168W | 0.463 | 0.286
P168E | 0.408 | -0.105
P168V | 0.143 | -0.0343
P168H | 0.377 | 0.136
P168L | 0.485 | 0.478

Variant | scaled log2 fold change [1] | scaled log2 fold change [2]
P168I | -0.0742 | 0.61
P168D | 0.403 | 1.03
P168Q | 0.259 | 0.667
P168C | 0.163 | 0.254
P168R | 0.453 | 0.117
P168K | 0.508 | -0.335
P168T | 0.449 | -0.142
P168F | 0.153 | 0.798
P168A | 0.158 | -0.0417
P168N | 0.157 | -0.31
P168S | 0.106 | 0.443
P168M | 0.157 | -0.366
P168Y | 0.394 | -0.173
A174S | -0.111 | -0.662
A174F | -1.02 | -1.07
A174W | 0.23 | -0.353
A174I | 0.163 | 0.249
A174K | -0.0242 | 0.0836
A174H | 0.267 | -0.0112
A174N | -0.0564 | 
A174V | 0.037 | -0.188
A174M | 0.0375 | -0.275
A174T | 0.187 | -0.546
A174P | -0.155 | -0.277

Variant | scaled log2 fold change [1] | scaled log2 fold change [2]
A174D | -0.995 | 0.361
A174C | -0.397 | 
A174G | -0.324 | 0.643
A174L | 0.255 | 0.483
A174E | -0.219 | 0.0347
A174R | -0.108 | 0.908
A174Q | -0.051 | 
T164D | 0.108 | 0.818
T164H | 0.213 | -0.0955
T164R | -0.0678 | -0.0374
T164Q | -0.171 | 
T164A | 0.408 | 0.0905
T164S | -0.253 | 0.99
T164I | -0.259 | -0.338
T164E | -0.00918 | 0.119
T164G | 0.367 | -0.293
T164W | -0.403 | -0.13
T164F | 0.0235 | -0.4
T164L | -0.159 | -0.224
T164C | 0.25 | 0.194
T164P | 0.508 | -0.0295
T164K | -0.0707 | 0.0715
T164N | 0.361 | 1.04
T164Y | -1.38 | 0.173

Variant | scaled log2 fold change [1] | scaled log2 fold change [2]
T164V | 0.342 | 1.31
T164M | -0.076 | -0.072
D173H | 0.000185 | -0.579
D173G | 0.473 | -0.138
D173R | 0.198 | 0.613
D173S | 0.248 | -0.827
D173M | -0.417 | 0.0547
D173C | -0.031 | 0.0714
D173K | 0.645 | 0.0902
D173E | 0.188 | 1.27
D173V | 0.418 | -0.196
D173L | -0.299 | 0.205
D173Y | 0.241 | -0.0391
D173F | 0.306 | -0.0815
D173A | 0.245 | 0.105
D173N | 0.304 | -0.47
D173Q | 0.224 | 0.251
D173W | -0.0293 | 
D173T | -0.0187 | 
D173P | 0.0487 | 0.601
